Square brackets hold non-standard residues; d marks the D form. Pmp = N[C@@H](Cc1ccc(CP(=O)(O)O)cc1)C(=O)O; pY = N[C@@H](Cc1ccc(OP(=O)(O)O)cc1)C(=O)O; 2Nal = N[C@@H](Cc1ccc2ccccc2c1)C(=O)O
What was measured:
[1] = target: T1, Grb2 SH2 domain (UniProt P62993 60-152, limits assumed); experiment: fluorescence anisotropy, direct binding of the FAM-labeled ligand to the Grb2 SH2 domain
T1 construct: domain: SH2 domain

[2] = target: T2, Kelch-like ECH-associated protein-1 (Keap1) (UniProt Q14145 321-609, limits assumed); experiment: fluorescence anisotropy competition assay; reference BH13
Procedure: (§1) The percentage of inhibition was calculated from the fluorescence anisotropy decrease by using equation
(§2) and plotted against the inhibitor concentration.

[3] = target: T2, Kelch-like ECH-associated protein-1 …; experiment: fluorescence anisotropy competition assay, displacement of the fluorescent Nrf2 peptide from Keap1
Procedure: as §1, §2

[4] = target: T2, Kelch-like ECH-associated protein-1 …; experiment: fluorescence anisotropy competition assay; reference BH15
Procedure: as §1, §2

[5] = target: T2, Kelch-like ECH-associated protein-1 …; experiment: fluorescence anisotropy competition assay; reference BH17
Procedure: as §1, §2

[6] = target: T2, Kelch-like ECH-associated protein-1 …; experiment: fluorescence anisotropy competition assay; reference peptide not named (34-fold matches BH17, […] nM)
Procedure: as §1, §2

[7] = target: T1, Grb2 SH2 domain; experiment: FP-based competition assay, unlabeled peptide against the FAM-labeled reporter ligand on the Grb2 SH2 domain
[8] = target: T1, Grb2 SH2 domain; experiment: binding to the Grb2 SH2 domain; reference BH23
[9] = target: T1, Grb2 SH2 domain; experiment: binding to the Grb2 SH2 domain; assay not named, presumably the same FP competition assay

T1 sequence (P62993 60-152 limits assumed): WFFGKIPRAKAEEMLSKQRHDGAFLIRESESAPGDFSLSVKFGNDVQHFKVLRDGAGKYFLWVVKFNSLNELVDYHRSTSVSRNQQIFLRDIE
T2 sequence (Q14145 321-609 limits assumed): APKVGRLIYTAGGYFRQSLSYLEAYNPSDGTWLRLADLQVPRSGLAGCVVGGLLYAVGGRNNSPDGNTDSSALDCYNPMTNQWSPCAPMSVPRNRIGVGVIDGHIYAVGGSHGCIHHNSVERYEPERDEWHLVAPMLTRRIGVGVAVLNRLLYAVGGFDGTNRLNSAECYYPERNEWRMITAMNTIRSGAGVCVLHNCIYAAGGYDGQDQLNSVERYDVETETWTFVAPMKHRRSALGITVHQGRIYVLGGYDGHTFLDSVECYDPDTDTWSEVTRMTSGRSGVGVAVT

## cyclo(AApYVNFFQ)-β-Ala-K(FAM) (peptide)
[1]
  Kd: 0.092 µM

B1: BH14 (peptide)
peptide: cyclo(FF[2Nal][dR][dP]PRRFQLNAETGE)
SMILES: CC(C)C[C@@H]1NC(=O)[C@H](CCC(N)=O)NC(=O)[C@H](Cc2ccccc2)NC(=O)[C@H](CCCNC(=N)N)NC(=O)[C@H](CCCNC(=N)N)NC(=O)[C@@H]2CCCN2C(=O)[C@H]2CCCN2C(=O)[C@@H](CCCNC(=N)N)NC(=O)[C@H](Cc2ccc3ccccc3c2)NC(=O)[C@H](Cc2ccccc2)NC(=O)[C@H](Cc2ccccc2)NC(=O)[C@H](CCC(=O)O)NC(=O)CNC(=O)[C@H]([C@@H](C)O)NC(=O)[C@H](CCC(=O)O)NC(=O)[C@H](C)NC(=O)[C@H](CC(N)=O)NC1=O
notes: also called cyclo(F-F-Φ-r-p-P-R-R-F-Q-L-N-A-E-T-G-E)
[2]
  fold decrease in affinity vs BH13: ~10 fold
[3]
  IC50: 1.4 µM

B2: BH16 (peptide)
peptide: cyclo(FF[2Nal][dR][dP]PRRFLNAETGE)
SMILES: CC(C)C[C@@H]1NC(=O)[C@H](Cc2ccccc2)NC(=O)[C@H](CCCNC(=N)N)NC(=O)[C@H](CCCNC(=N)N)NC(=O)[C@@H]2CCCN2C(=O)[C@H]2CCCN2C(=O)[C@@H](CCCNC(=N)N)NC(=O)[C@H](Cc2ccc3ccccc3c2)NC(=O)[C@H](Cc2ccccc2)NC(=O)[C@H](Cc2ccccc2)NC(=O)[C@H](CCC(=O)O)NC(=O)CNC(=O)[C@H]([C@@H](C)O)NC(=O)[C@H](CCC(=O)O)NC(=O)[C@H](C)NC(=O)[C@H](CC(N)=O)NC1=O
notes: also called cyclo(F-F-Φ-r-p-P-R-R-F-L-N-A-E-T-G-E)
[4]
  fold decrease in affinity vs BH15: ~10 fold
[3]
  IC50: 1.47 µM

B3: BH18 (peptide)
peptide: cyclo(F[2Nal][dR][dP]PRRFLNAETGE)
SMILES: CC(C)C[C@@H]1NC(=O)[C@H](Cc2ccccc2)NC(=O)[C@H](CCCNC(=N)N)NC(=O)[C@H](CCCNC(=N)N)NC(=O)[C@@H]2CCCN2C(=O)[C@H]2CCCN2C(=O)[C@@H](CCCNC(=N)N)NC(=O)[C@H](Cc2ccc3ccccc3c2)NC(=O)[C@H](Cc2ccccc2)NC(=O)[C@H](CCC(=O)O)NC(=O)CNC(=O)[C@H]([C@@H](C)O)NC(=O)[C@H](CCC(=O)O)NC(=O)[C@H](C)NC(=O)[C@H](CC(N)=O)NC1=O
notes: also called cyclo(F-Φ-r-p-P-R-R-F-L-N-A-E-T-G-E)
[5]
  fold decrease in affinity vs BH17: ~10 fold
[3]
  IC50: 1.4 µM

B4: BH19 (peptide)
peptide: cyclo(F[2Nal][dR][dP]PRRFNAETGE)
SMILES: C[C@@H]1NC(=O)[C@H](CC(N)=O)NC(=O)[C@H](Cc2ccccc2)NC(=O)[C@H](CCCNC(=N)N)NC(=O)[C@H](CCCNC(=N)N)NC(=O)[C@@H]2CCCN2C(=O)[C@H]2CCCN2C(=O)[C@@H](CCCNC(=N)N)NC(=O)[C@H](Cc2ccc3ccccc3c2)NC(=O)[C@H](Cc2ccccc2)NC(=O)[C@H](CCC(=O)O)NC(=O)CNC(=O)[C@H]([C@@H](C)O)NC(=O)[C@H](CCC(=O)O)NC1=O
notes: also called cyclo(F-Φ-r-p-P-R-R-F-N-A-E-T-G-E)
[6]
  fold reduction in inhibition potency: 34 fold
[3]
  IC50: 5.54 µM

B5: BH23 (peptide)
peptide: cyclo(F[2Nal][dR][dP]PRR[pY]VN)
notes: also called cyclo(pY-V-N-F-Φ-r-p-P-R-R); cyclo[F-Φ-r-p-P-R-R-pY-V-N)
[7]
  IC50: 0.4 µM

B6: BH25 (peptide)
peptide: cyclo(FA[dA][dP]PRR[pY]VN)
SMILES: CC(C)[C@@H]1NC(=O)[C@H](Cc2ccc(OP(=O)(O)O)cc2)NC(=O)[C@H](CCCNC(=N)N)NC(=O)[C@H](CCCNC(=N)N)NC(=O)[C@@H]2CCCN2C(=O)[C@H]2CCCN2C(=O)[C@@H](C)NC(=O)[C@H](C)NC(=O)[C@H](Cc2ccccc2)NC(=O)[C@H](CC(N)=O)NC1=O
notes: Control peptide: the Nal-arg of BH23 is replaced with Ala-ala; also called cyclo[F-A-a-p-P-R-R-pY-V-N); negative control peptide BH25
[7]
  IC50: 0.1 µM

B7: BH26 (peptide)
peptide: cyclo(F[2Nal][dR][dP]PRR[Pmp]VN)
SMILES: CC(C)[C@@H]1NC(=O)[C@H](Cc2ccc(CP(=O)(O)O)cc2)NC(=O)[C@H](CCCNC(=N)N)NC(=O)[C@H](CCCNC(=N)N)NC(=O)[C@@H]2CCCN2C(=O)[C@H]2CCCN2C(=O)[C@@H](CCCNC(=N)N)NC(=O)[C@H](Cc2ccc3ccccc3c2)NC(=O)[C@H](Cc2ccccc2)NC(=O)[C@H](CC(N)=O)NC1=O
[8]
  fold less potent than BH23: ~3 fold
[9]
  IC50: 1.37 µM

B8: BH13 (peptide)
peptide: cyclo(FF[2Nal][dR][dP]PRRFQLDPETGE)
SMILES: CC(C)C[C@@H]1NC(=O)[C@H](CCC(N)=O)NC(=O)[C@H](Cc2ccccc2)NC(=O)[C@H](CCCNC(=N)N)NC(=O)[C@H](CCCNC(=N)N)NC(=O)[C@@H]2CCCN2C(=O)[C@H]2CCCN2C(=O)[C@@H](CCCNC(=N)N)NC(=O)[C@H](Cc2ccc3ccccc3c2)NC(=O)[C@H](Cc2ccccc2)NC(=O)[C@H](Cc2ccccc2)NC(=O)[C@H](CCC(=O)O)NC(=O)CNC(=O)[C@H]([C@@H](C)O)NC(=O)[C@H](CCC(=O)O)NC(=O)[C@@H]2CCCN2C(=O)[C@H](CC(=O)O)NC1=O
notes: The underlining is not visible, so the entry may be only part of the peptide; also called cyclo(F-F-Φ-r-p-P-R-R-F-Q-L-D-P-E-T-G-E)
[3]
  IC50: 0.153 µM

Reference: patent US20190284240A1 (OHIO STATE INNOVATION FOUNDATION, published 2019)
